Experiment [1] deals with co-expressed and co-purified 2:1 Vps75–Rtt109 complex (Saccharomyces cerevisiae) (UniProt P53853). Kind of experiment: SEC-MALS; 20 μM co-expressed 2:1 Vps75–Rtt109 with 20 or 40 μM H3-H4 or H3DM-H4; Superdex 200 Increase 10/300 GL; 20 mM Tris–HCl pH 7.5, 300 mM NaCl, 0.5 mM TCEP. A general note: Size exclusion chromatography separates by hydrodynamic size, large species first.

Experiment [2] has as its target Vps75–Rtt109 complex reconstituted at 2:2 from individually purified proteins (Saccharomyces cerevisiae) (UniProt P53853). Kind of experiment: AUC; sedimentation velocity; 0.5 or 1 equivalent of H3-H4 or H3DM-H4 titrated against Vps75–Rtt109 reconstituted at 2:2 or 2:1 (relative to 7.5 μM Vps75), with 2:2 mixes of Vps75 and histones for reference; 20 mM Tris pH 7.5, 150 mM NaCl, 0.5 mM TCEP, 20°C. The following applies: scale: H3-H4 per Vps75 dimer.

Experiment [3] deals with 2:1:1 Vps75–Rtt109–(H3-H4) complex, reconstituted from individually purified Vps75 and Rtt109 (Saccharomyces cerevisiae | Xenopus laevis) (UniProt P53853). The experiment is described as above.
The target of experiment [4] is 2:1:1 Vps75–Rtt109–(H3-H4) complex formed from co-expressed Vps75–Rtt109 (Saccharomyces cerevisiae | Xenopus laevis) (UniProt P53853). The experiment can be described thus: SEC-MALS; 20 μM co-expressed 2:1 Vps75–Rtt109 with 20 or 40 μM H3-H4 or H3DM-H4; Superdex 200 Increase 10/300 GL; 20 mM Tris–HCl pH 7.5, 300 mM NaCl, 0.5 mM TCEP.
In experiment [5] the target is Vps75–Rtt109 complex reconstituted at 2:1 from individually purified proteins (Saccharomyces cerevisiae) (UniProt P53853). Kind of experiment: AUC; sedimentation velocity; 0.5 or 1 equivalent of H3-H4 or H3DM-H4 titrated against Vps75–Rtt109 reconstituted at 2:2 or 2:1 (relative to 7.5 μM Vps75), with 2:2 mixes of Vps75 and histones for reference; 20 mM Tris pH 7.5, 150 mM NaCl, 0.5 mM TCEP, 20°C.

The record followed here is PMC7494816.

For orientation: stoichiometry N means a count of units in the complex or per binding partner. “Xenopus laevis histones H3-H4 (wild type), refolded (from UniProt P84233 1-136; P62799 1-103) (complex)” returned a stoichiometry N (H3-H4 per 2:1 Vps75–Rtt109 (2:1:1)) in experiment [1] of 1. In experiment [2], the stoichiometry N worked out at 1. In the case of “2:1:1 Vps75–Rtt109–(H3-H4) complex, reconstituted from individually purified Vps75 and Rtt109 (from UniProt P53853 1-264; Q07794 1-436; P84233 1-136; P62799 1-103)”, in experiment [3], the stoichiometry N (copies of the 2:1:1 complex (4:2:2)) is 2.

The substance “2:1:1 Vps75–Rtt109–(H3-H4) complex formed from co-expressed Vps75–Rtt109 (from UniProt P53853 1-264; Q07794 1-436; P84233 1-136; P62799 1-103)” displayed a stoichiometry N (copies of the 2:1:1 sub-complex (4:2:2)) in experiment [4] of 2. On to “Xenopus laevis H3DM-H4 (H3 dimerization mutant C110E, L126A, I130A with H4), refolded (from UniProt P62799 1-103) (complex)”, for which the stoichiometry N (H3DM-H4 per 2:1 Vps75–Rtt109 (2:1:1)) in experiment [1] was found to be 1. Further, the stoichiometry N (H3DM-H4 per Vps75 dimer (printed 2:2:1)) in experiment [5] was determined as 1.
